The source of these data is patent US20140363428A1 (Chugai, published 2014).

B1: IgG1-F1276 (antibody)
heavy: QVQLQESGPGLVKPSETLSLTCAVSGHSISHDHAWSWVRQPPGEGLEWIGFISYSGITNYNPSLQGRVTISRDNSKNTLYLQMNSLRAEDTAVYYCARSLARTTAMDYWGEGTLVTVSSASTKGPSVFPLAPSSKSTSGGTAALGCLVKDYFPEPVTVSWNSGALTSGVHTFPAVLQSSGLYSLSSVVTVPSSSLGTQTYICNVNHKPSNTKVDKKVEPKSCDKTHTCPPCPAPELRGGPKVFLFPPKPKDTLYISRAPEVTCVVVDVSHEDPEVKFNWYVDGVEVHNAKTKPREEQYNSTYRVVSVLTVLHQDWLNGKEYKCKVSNKALPAPIEKTISKAKGQPREPQVYTLPPSRDELTKNQVSLTCLVKGFYPSDIAVEWESNGQPENNYKTTPPVLDSDGSFFLYSKLTVDKSRWQQGNVFSCSVMHEALHYHVTKKDLSLSP
light: not shown
notes: EU numbering; copies: 2 + 2
B2: IgG1-F1281 (antibody)
heavy: QVQLQESGPGLVKPSETLSLTCAVSGHSISHDHAWSWVRQPPGEGLEWIGFISYSGITNYNPSLQGRVTISRDNSKNTLYLQMNSLRAEDTAVYYCARSLARTTAMDYWGEGTLVTVSSASTKGPSVFPLAPSSKSTSGGTAALGCLVKDYFPEPVTVSWNSGALTSGVHTFPAVLQSSGLYSLSSVVTVPSSSLGTQTYICNVNHKPSNTKVDKKVEPKSCDKTHTCPPCPAPELRGGPKVFLFPPKPKDTLYISRGPEVTCVVVDVSHEDPEVKFNWYVDGVEVHNAKTKPREEQYNSTYRVVSVLTVLHQDWLNGKEYKCKVSNKALPAPIEKTISKAKGQPREPQVYTLPPSRDELTKNQVSLTCLVKGFYPSDIAVEWESNGQPENNYKTTPPVLDSDGSFFLYSKLTVDKSRWQQGNVFSCSVMHEALDYHVTKKDLSLSP
light: not shown
notes: EU numbering; copies: 2 + 2
B3: IgG1-F1280 (antibody)
heavy: QVQLQESGPGLVKPSETLSLTCAVSGHSISHDHAWSWVRQPPGEGLEWIGFISYSGITNYNPSLQGRVTISRDNSKNTLYLQMNSLRAEDTAVYYCARSLARTTAMDYWGEGTLVTVSSASTKGPSVFPLAPSSKSTSGGTAALGCLVKDYFPEPVTVSWNSGALTSGVHTFPAVLQSSGLYSLSSVVTVPSSSLGTQTYICNVNHKPSNTKVDKKVEPKSCDKTHTCPPCPAPELRGGPKVFLFPPKPKDTLYISRGPEVTCVVVDVSHEDPEVKFNWYVDGVEVHNAKTKPREEQYNSTYRVVSVLTVLHQDWLNGKEYKCKVSNKALPAPIEKTISKAKGQPREPQVYTLPPSRDELTKNQVSLTCLVKGFYPSDIAVEWESNGQPENNYKTTPPVLDSDGSFFLYSKLTVDKSRWQQGNVFSCSVMHEALDYHVTRKELSLSP
light: not shown
notes: EU numbering; copies: 2 + 2
B4: IgG1-F1279 (antibody)
heavy: QVQLQESGPGLVKPSETLSLTCAVSGHSISHDHAWSWVRQPPGEGLEWIGFISYSGITNYNPSLQGRVTISRDNSKNTLYLQMNSLRAEDTAVYYCARSLARTTAMDYWGEGTLVTVSSASTKGPSVFPLAPSSKSTSGGTAALGCLVKDYFPEPVTVSWNSGALTSGVHTFPAVLQSSGLYSLSSVVTVPSSSLGTQTYICNVNHKPSNTKVDKKVEPKSCDKTHTCPPCPAPELRGGPKVFLFPPKPKDTLYISRGPEVTCVVVDVSHEDPEVKFNWYVDGVEVHNAKTKPREEQYNSTYRVVSVLTVLHQDWLNGKEYKCKVSNKALPAPIEKTISKAKGQPREPQVYTLPPSRDELTKNQVSLTCLVKGFYPSDIAVEWESNGQPENNYKTTPPVLDSDGSFFLYSKLTVDKSRWQQGNVFSCSVMHEALHYHVTKKDLSLSP
light: not shown
notes: EU numbering; copies: 2 + 2
B5: IgG1-F1283 (antibody)
heavy: QVQLQESGPGLVKPSETLSLTCAVSGHSISHDHAWSWVRQPPGEGLEWIGFISYSGITNYNPSLQGRVTISRDNSKNTLYLQMNSLRAEDTAVYYCARSLARTTAMDYWGEGTLVTVSSASTKGPSVFPLAPSSKSTSGGTAALGCLVKDYFPEPVTVSWNSGALTSGVHTFPAVLQSSGLYSLSSVVTVPSSSLGTQTYICNVNHKPSNTKVDKKVEPKSCDKTHTCPPCPAPELRGGPKVFLFPPKPKDTLYISRNPEVTCVVVDVSHEDPEVKFNWYVDGVEVHNAKTKPREEQYNSTYRVVSVLTVLHQDWLNGKEYKCKVSNKALPAPIEKTISKAKGQPREPQVYTLPPSRDELTKNQVSLTCLVKGFYPSDIAVEWESNGQPENNYKTTPPVLDSDGSFFLYSKLTVDKSRWQQGNVFSCSVMHEALDYHVTRKELSLSP
light: not shown
notes: EU numbering; copies: 2 + 2
B6: IgG1-F1277 (antibody)
heavy: QVQLQESGPGLVKPSETLSLTCAVSGHSISHDHAWSWVRQPPGEGLEWIGFISYSGITNYNPSLQGRVTISRDNSKNTLYLQMNSLRAEDTAVYYCARSLARTTAMDYWGEGTLVTVSSASTKGPSVFPLAPSSKSTSGGTAALGCLVKDYFPEPVTVSWNSGALTSGVHTFPAVLQSSGLYSLSSVVTVPSSSLGTQTYICNVNHKPSNTKVDKKVEPKSCDKTHTCPPCPAPELRGGPKVFLFPPKPKDTLYISRAPEVTCVVVDVSHEDPEVKFNWYVDGVEVHNAKTKPREEQYNSTYRVVSVLTVLHQDWLNGKEYKCKVSNKALPAPIEKTISKAKGQPREPQVYTLPPSRDELTKNQVSLTCLVKGFYPSDIAVEWESNGQPENNYKTTPPVLDSDGSFFLYSKLTVDKSRWQQGNVFSCSVMHEALDYHVTRKELSLSP
light: not shown
notes: EU numbering; copies: 2 + 2
B7: IgG1-F1282 (antibody)
heavy: QVQLQESGPGLVKPSETLSLTCAVSGHSISHDHAWSWVRQPPGEGLEWIGFISYSGITNYNPSLQGRVTISRDNSKNTLYLQMNSLRAEDTAVYYCARSLARTTAMDYWGEGTLVTVSSASTKGPSVFPLAPSSKSTSGGTAALGCLVKDYFPEPVTVSWNSGALTSGVHTFPAVLQSSGLYSLSSVVTVPSSSLGTQTYICNVNHKPSNTKVDKKVEPKSCDKTHTCPPCPAPELRGGPKVFLFPPKPKDTLYISRNPEVTCVVVDVSHEDPEVKFNWYVDGVEVHNAKTKPREEQYNSTYRVVSVLTVLHQDWLNGKEYKCKVSNKALPAPIEKTISKAKGQPREPQVYTLPPSRDELTKNQVSLTCLVKGFYPSDIAVEWESNGQPENNYKTTPPVLDSDGSFFLYSKLTVDKSRWQQGNVFSCSVMHEALHYHVTKKDLSLSP
light: not shown
notes: EU numbering; copies: 2 + 2
B8: IgG1-F1284 (antibody)
heavy: QVQLQESGPGLVKPSETLSLTCAVSGHSISHDHAWSWVRQPPGEGLEWIGFISYSGITNYNPSLQGRVTISRDNSKNTLYLQMNSLRAEDTAVYYCARSLARTTAMDYWGEGTLVTVSSASTKGPSVFPLAPSSKSTSGGTAALGCLVKDYFPEPVTVSWNSGALTSGVHTFPAVLQSSGLYSLSSVVTVPSSSLGTQTYICNVNHKPSNTKVDKKVEPKSCDKTHTCPPCPAPELRGGPKVFLFPPKPKDTLYISRNPEVTCVVVDVSHEDPEVKFNWYVDGVEVHNAKTKPREEQYNSTYRVVSVLTVLHQDWLNGKEYKCKVSNKALPAPIEKTISKAKGQPREPQVYTLPPSRDELTKNQVSLTCLVKGFYPSDIAVEWESNGQPENNYKTTPPVLDSDGSFFLYSKLTVDKSRWQQGNVFSCSVMHEALDYHVTKKDLSLSP
light: not shown
notes: EU numbering; copies: 2 + 2
B9: IgG1-F1285 (antibody)
heavy: QVQLQESGPGLVKPSETLSLTCAVSGHSISHDHAWSWVRQPPGEGLEWIGFISYSGITNYNPSLQGRVTISRDNSKNTLYLQMNSLRAEDTAVYYCARSLARTTAMDYWGEGTLVTVSSASTKGPSVFPLAPSSKSTSGGTAALGCLVKDYFPEPVTVSWNSGALTSGVHTFPAVLQSSGLYSLSSVVTVPSSSLGTQTYICNVNHKPSNTKVDKKVEPKSCDKTHTCPPCPAPELRGGPKVFLFPPKPKDTLYITRTPEVTCVVVDVSHEDPEVKFNWYVDGVEVHNAKTKPREEQYNSTYRVVSVLTVLHQDWLNGKEYKCKVSNKALPAPIEKTISKAKGQPREPQVYTLPPSRDELTKNQVSLTCLVKGFYPSDIAVEWESNGQPENNYKTTPPVLDSDGSFFLYSKLTVDKSRWQQGNVFSCSVMHEALHYHVTKKDLSLSP
light: not shown
notes: EU numbering; copies: 2 + 2

T1 sequence (P55899 24-297 limits assumed, chain 1 of 2): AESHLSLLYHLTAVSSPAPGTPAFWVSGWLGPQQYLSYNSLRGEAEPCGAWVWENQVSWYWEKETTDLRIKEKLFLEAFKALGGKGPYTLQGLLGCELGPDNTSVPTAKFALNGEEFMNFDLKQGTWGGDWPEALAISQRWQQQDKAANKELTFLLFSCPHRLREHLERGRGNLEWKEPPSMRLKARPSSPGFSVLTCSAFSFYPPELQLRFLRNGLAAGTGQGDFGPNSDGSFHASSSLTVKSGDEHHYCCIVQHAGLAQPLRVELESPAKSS
T1 sequence (P61769 21-119 limits assumed, chain 2 of 2): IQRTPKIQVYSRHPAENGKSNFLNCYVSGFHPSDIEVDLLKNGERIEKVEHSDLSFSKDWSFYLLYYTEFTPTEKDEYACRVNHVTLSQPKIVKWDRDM

The experiment has as its target T1, soluble human FcRn (human, UniProt P55899 24-297; P61769 21-119).
T1 construct: Heterodimer of FcRn alpha chain and beta2-microglobulin; also called hFcRn
Nature of the experiment: SPR (Biacore T100), antibody captured by protein L, hFcRn as analyte, pH 7.0, 25 C.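 Also: KD calculated from fitted association and dissociation rate constants of the sensorgrams, protein L amine-coupled to the sensor chip, sodium phosphate running buffer with NaCl and Tween20.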 On the technique in general: In SPR one partner is held on a chip, and binding of the other changes the refractive index at the surface.
Broadly, the Kd is the free concentration of one partner at which half of the binding sites on the other are occupied at equilibrium, for simple one-to-one binding. A low value points to higher affinity. For the molecule B1, the Kd amounted to 100 nM.

With B2, the Kd came out at 170 nM.

Regarding B3, the affinity, expressed as Kd, was 210 nM.

The molecule B4 returned a Kd of 120 nM.

For the molecule B5, binding was characterised by a dissociation constant (Kd) of 130 nM.

B6 came in with a Kd of 170 nM.

On to B7, for which the Kd came to 77 nM.

B8 yielded a Kd of 110 nM.

B9 had a Kd of 94 nM.
